# Data from patent US20180333502A1.
# Target: activated human CD4 T cells (GITR) (human) (UniProt Q9Y5U5)
# Assay: FACS binding to activated human CD4 T cells; isotype control
# Chain of activated human CD4 T cells (GITR) (human) (Q9Y5U5 26-241): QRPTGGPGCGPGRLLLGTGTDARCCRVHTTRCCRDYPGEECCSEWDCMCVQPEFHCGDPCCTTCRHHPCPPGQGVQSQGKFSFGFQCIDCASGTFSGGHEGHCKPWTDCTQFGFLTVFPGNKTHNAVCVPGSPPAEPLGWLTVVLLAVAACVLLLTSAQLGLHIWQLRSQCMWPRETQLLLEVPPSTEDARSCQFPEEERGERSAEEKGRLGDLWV
row,EC50 [nM],Substance
1,6.72,unrelated hIgG2
2,132,unrelated hIgG1
